Data as given in patent EP3459964A1, “GALECTIN-1 BINDING PEPTIDES AND USE THEREOF FOR DIAGNOSTIC AND THERAPEUTIC PURPOSE” (Université de Mons, priority 2017, dated 2019).
Where no end group is shown, it is not given here.

Tests used:
[1] = target: T1, Human gal-1 (Homo sapiens, UniProt P09382); assay: Gal-1 binding of the isolated phage clones (ELISA), affinity constants against gal-1 or control proteins (HSA, collagen); conditions: phage clone expressing the peptide; for Affinity 2 Ka^Gal-1 / Ka^Coll / Affinity 1 Ka^Gal-1 / Ka^HSA: Ka = 1/K*d; for Affinity 2 Ka^Gal-1 / Ka^Coll: Coll = collagen; for Affinity 1 Ka^Gal-1 / Ka^HSA: one representative clone per sequence; for Affinity 3 Ka^Gal-1/ ((Ka^HSA + Ka^Coll)/2): specific affinity vs mean of control proteins
T1 construct: purchased Peprotech
T1 sequence (P09382 whole entry): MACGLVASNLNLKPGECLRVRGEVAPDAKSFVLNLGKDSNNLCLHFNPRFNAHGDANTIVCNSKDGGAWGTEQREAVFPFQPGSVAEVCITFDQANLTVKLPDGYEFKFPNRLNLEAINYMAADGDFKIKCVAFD
Description: Human gal-1 (Peprotech) and control proteins (HSA and collagen) were immobilized on 96-well ELISA plates at a concentration of 10 µg/mL in NaHCO3 0.1 M, pH 8.6, overnight at 4°C. The wells were then blocked with Protein-Free Blocking Buffer (PFBB, Thermo Fisher Scientific, p/a Perbio Science BVBA, Aalst, Belgium), 1 hour at room temperature. Fifty clones issued from each phage display experiment were first screened at one concentration (5 x 10^11 phages/100 µL for PDE1; 10^11 phages/100 µL for PDE2) prepared in Tris buffered saline (TBS: 50 mM Tris-HCl, 150 mM NaCl, pH 7.5) supplemented with 0.5% Tween-20 (TBST). The clones were incubated for 2 hours at room temperature, under mild agitation. To determine the apparent dissociation constant (K*d) of the selected clones, ten serial dilutions of phages (generally ranging from 5x10^12 to 10^7 phages/100 µL) were incubated with gal-1 or control proteins in the same conditions as for the first clones' screening. The bound phages were detected by an incubation (1 hour, room temperature) with horseradish peroxidase (HRP)-conjugated anti-M13 monoclonal antibody (Amersham Pharmacia Biotech Benelux, Roosendaal, The Netherlands) diluted 1:5000 in TBS supplemented with 0.5% BSA. After each incubation step, the wells were rinsed with an automated microplate washer (Beckman Coulter, Analis, Suarlée, Belgium). Finally, the wells were filled with 200 µL/well of 2,2'-azino-bis(3-ethylbenzothiazoline-6-sulphonic acid (ABTS, 22 mg) diammonium salt (Sigma-Aldrich) solution prepared in 50 mM sodium citrate pH 4.0 completed with 0.05% H2O2. The optical density (OD) was measured (405 nm, differential filter: 630 nm) using a microplate reader (StatFax-2100, Awareness Technology, Fisher Bioblock Scientific, Tournai, Belgium).

[2] = Circular dichroism study of secondary structure in distilled water; format: physicochemical; conditions: non-biotinylated peptides, 1 mM in distilled water, 20 °C and 37 °C
Description: Non-biotinylated peptides dissolved in distilled water at 1 mM were used for structure analysis. Circular Dichroism (CD) spectra were recorded using a ChirascanTM Plus CD Spectrometer (Applied Photophysics Inc., Leatherhead, United Kingdom). The measurements were carried out using 1 mm quartz Suprasil cells from Hellma Analytics (Müllheim, Germany). The spectra were recorded between 180 and 350 nm, with a bandwidth of 0.5 nm, time per point 2 s and three repetitions, both at 20 °C and 37 °C. The CD RMS (Root Mean Square) noise is around 0.03 mdeg at 180 nm. The aqueous solution reference spectra were used as baselines and were automatically subtracted from the CD spectra of the samples.

[3] = target: T2, gal-1 expressed by human tumor tissues (Homo sapiens, UniProt P09382); assay: Binding of biotinylated peptides to human thyroid biopsies (immunohistochemistry, ImageJ semi-quantitative analysis); conditions: for staining produced by peptides in healthy thyroids and thyroid adenomas compared to papillary, follicular and anaplastic thyroid cancer: ImageJ analysis of immunohistochemistry microphotographs; for targeting of the papillary areas: biotinylated peptides 20 µM, human papillary thyroid cancer biopsy sections
T2 construct: from tissue; host or cells: paraffin-embedded human thyroid biopsy sections (healthy, inflammatory, adenoma, papillary, follicular, anaplastic)
T2 sequence (P09382 whole entry): as above
Description: Immunohistochemistry evaluation was performed on 5 µm thick sections mounted on silane-coated glass slides. The paraffin-embedded tissue specimens were deparaffinized and rehydrated. After unmasking the epitopes in citrate buffer pH 6.0, the endogenous peroxidase activity was blocked with 0.7% H2O2. Sections were then blocked with streptavidin - biotin blocking kit (Vector Labconsult) and with 0.5% casein (Sigma-Aldrich).
The binding of biotinylated peptides to tumor biopsies was validated by using a similar protocol. However, no epitope unmasking was performed, while casein blocking was replaced by PFBB. Endogenous peroxidases were blocked with 1% H2O2. The biotinylated peptides (stock prepared in distilled water) were diluted in TBS at a concentration of 20 µM and incubated with tumor biopsies overnight at 4 °C. The bound peptides were then detected with 5 µg/mL of anti-biotin antibody made in goat (Vector Labconsult) and with 1 µg/mL of biotinylated anti-goat IgG made in horse (both from Vector Labconsult) both diluted in TBS completed with 0.5% BSA […]. After incubation with Vectastain ABC kit (Vector Labconsult), the staining with DAB/H2O2 and Hemalun counterstaining were performed as described above.
Gal-1 staining on immunohistochemistry microphotographs (DM2000 Leica microscope equipped with a DFC 425C camera, Leica Microsystems) was semi-quantitatively analyzed by ImageJ software (National Institutes of Health, USA). The expression of gal-1 was compared in 5 cases of healthy thyroid, 2 cases of inflammatory thyroid (patients with goiter), 6 cases of thyroid adenoma, 6 cases of papillary thyroid cancer, 4 cases of follicular variant of papillary thyroid cancer and 6 cases of anaplastic cancer. The binding of peptides 1 and 7 was compared in 5 cases of healthy thyroid, 2 cases of inflammatory thyroid, 6 cases of thyroid adenoma, 3 cases of papillary thyroid cancer, 3 cases of follicular thyroid cancer and 6 cases of anaplastic thyroid cancer. The total area occupied by brown stained pixels was determined after thresholding the background staining on blank histological slices, where the primary antibody was excluded. The total stained area is then automatically generated after pixel segmentation.

[4] = tested on: TPC-1 cells; assay: Cell adhesion assay: TPC-1 cell adhesion to immobilized gal-1; format: cell-based, human; conditions: 500 nM, TPC-1 adhesion to gal-1, non-biotinylated peptides
Description: Gal-1 (Peprotech) was immobilized on 96-well culture plates at 20 µg/mL overnight at 4°C. After blocking with 0.1% BSA prepared in phosphate buffered saline (PBS, per liter: 8 g NaCl, 0.2 g KCl, 2.31 g Na2HPO4 × 12 H2O 0.2 g KH2PO4, pH 7.4), non-biotinylated peptides (P1, P7 or P1Scr) diluted in RPMI 1640 culture medium at 0.5 µM or 50 µM were pre-incubated with gal-1 for 2 hours. In the meanwhile, TPC-1 cells (10^5 cells/well) were pre-incubated with the desired concentration of peptides in RPMI 1640 culture medium for 30 minutes before seeding them into the wells. The cells were then incubated (37 °C, 5% CO2) with gal-1 immobilized on wells for one hour. The negative control cells were incubated with RPMI 1640 culture medium alone. After washing steps and plate centrifugation between them, cells were fixed 15 minutes with buffered 4% formalin (from Sigma-Aldrich) and washed before staining with 1% crystal violet. Wells were rinsed and crystal violet was solubilized with dimethyl sulfoxide (DMSO, Sigma-Aldrich) before measuring absorbance at 570 nm (differential filter at 630 nm) with a microplate reader. The percentage of adherent cells was obtained by calculating the percentage ratio of OD measured for TPC-1 incubated with peptides over the OD of negative control cells.

Affinity 2 Ka^Gal-1 / Ka^Coll [1] | Affinity 1 Ka^Gal-1 / Ka^HSA [1] | Affinity 3 Ka^Gal-1/ ((Ka^HSA + Ka^Coll)/2) [1] | conformation in aqueous solution (CD signature) [2] | staining produced by peptides in healthy thyroids and thyroid adenomas compared to papillary, follicular and anaplastic thyroid cancer [3] | Sequence | targeting of the papillary areas [3] | decrease of cell adhesion [4]
27.92 | 1.23 | 2.36 |  |  | DWSSWVYRDPQT [Peptide P8] |  | 
 |  |  | random coil state | weaker | HLWGWLYAPSFQ [Peptide P1, HLWGWLYAPSFQ] | efficient targeting of the papillary areas | around 25%
1.17 | 1.17 | 1.17 |  |  | SVYVEISWVRTM [Peptide P6] |  | 
1.93 | 1.18 | 1.47 |  |  | VHWDFRQWWQPS [Peptide P4] |  | 
1.58·10^13 | 1.25 | 2.50 |  |  | YHHSGPYAGPMW [Peptide P5] |  | 
infinite ratio | infinite ratio | infinite ratio | random coil state | weaker | YSWHIDIVAPRN [Peptide P7, YSWHIDIVAPRN] | efficient targeting of the papillary areas | ~30%
8.15 | 121.56 | 25.66 |  |  | YTFHFDIFQPHF [Peptide P2] |  | 

Sequence | Affinity 2 Ka^Gal-1 / Ka^Coll [1] | Affinity 1 Ka^Gal-1 / Ka^HSA [1] | Affinity 3 Ka^Gal-1/ ((Ka^HSA + Ka^Coll)/2) [1] | conformation in aqueous solution (CD signature) [2] | staining produced by peptides in healthy thyroids and thyroid adenomas compared to papillary, follicular and anaplastic thyroid cancer [3] | targeting of the papillary areas [3] | decrease of cell adhesion [4]
HYSWSWIAYSPG [Peptide P3] | 1.35 | 0.99 | 1.14 |  |  |  | 
